Results on three molecules are retold here after publication PMC6274998, “Mycobacterium tuberculosis ClpC1 N-Terminal Domain Is Dispensable for Adaptor Protein-Dependent Allosteric Regulation” (International Journal of Molecular Sciences, 2018).

Assay [1] addresses ClpS (additional molecules) (Escherichia coli) (UniProt P0A8Q6). The following applies: cited from earlier work.
A further assay concerns the target ClpS (Escherichia coli) (UniProt P0A8Q6). The following applies: cited from earlier work.
The target of assay [2] is full-length Mycobacterium tuberculosis ClpC1 (Mycobacterium tuberculosis H37Rv) (UniProt P9WPC9).
Chain of full-length Mycobacterium tuberculosis ClpC1 (Mycobacterium tuberculosis H37Rv) (P9WPC9 whole entry): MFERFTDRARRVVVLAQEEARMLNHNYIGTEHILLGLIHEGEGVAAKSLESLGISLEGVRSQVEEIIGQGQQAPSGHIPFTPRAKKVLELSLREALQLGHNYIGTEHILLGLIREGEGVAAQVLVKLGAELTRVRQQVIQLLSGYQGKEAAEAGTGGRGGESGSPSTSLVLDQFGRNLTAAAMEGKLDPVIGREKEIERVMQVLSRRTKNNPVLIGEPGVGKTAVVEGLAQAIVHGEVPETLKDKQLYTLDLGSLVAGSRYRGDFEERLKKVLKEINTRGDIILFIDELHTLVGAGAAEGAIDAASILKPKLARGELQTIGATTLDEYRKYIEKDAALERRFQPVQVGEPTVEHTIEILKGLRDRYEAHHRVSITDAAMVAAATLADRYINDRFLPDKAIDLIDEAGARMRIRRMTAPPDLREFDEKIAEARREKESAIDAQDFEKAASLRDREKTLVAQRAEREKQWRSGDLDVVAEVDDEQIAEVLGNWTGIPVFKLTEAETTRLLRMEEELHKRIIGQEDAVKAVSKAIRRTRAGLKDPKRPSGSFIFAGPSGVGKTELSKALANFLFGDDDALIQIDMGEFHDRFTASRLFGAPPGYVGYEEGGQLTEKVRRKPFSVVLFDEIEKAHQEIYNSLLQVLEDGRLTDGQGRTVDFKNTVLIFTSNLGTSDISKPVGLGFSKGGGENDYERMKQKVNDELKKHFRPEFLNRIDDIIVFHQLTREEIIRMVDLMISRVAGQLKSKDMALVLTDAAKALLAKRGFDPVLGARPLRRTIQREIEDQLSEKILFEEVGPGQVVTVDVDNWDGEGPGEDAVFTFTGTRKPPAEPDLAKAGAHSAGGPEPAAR
The target of assay [3] is T1, full-length Mycobacterium tuberculosis ClpC1 (Mycobacterium tuberculosis H37Rv, UniProt P9WPC9 1-848).
T1 construct: ClpC1 AAA+ ATPase, M. tuberculosis H37Rv, Rv3596c, full length; also called wild-type M. tuberculosis ClpC1; Full-Length ClpC1; not shown: His6-SUMO, N-terminal, cleaved
T1 sequence (P9WPC9 whole entry): as above
Briefly: pull-down. The following applies: both partners purified.

Some results are limits rather than exact numbers.

Chain of ClpS (Escherichia coli) (P0A8Q6 whole entry): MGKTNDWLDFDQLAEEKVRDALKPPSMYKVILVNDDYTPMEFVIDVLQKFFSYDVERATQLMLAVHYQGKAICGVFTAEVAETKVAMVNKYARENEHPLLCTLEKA
Chain of ClpS (additional molecules) (Escherichia coli) (P0A8Q6 whole entry): as above

ClpA (from UniProt P0ABH9): the Kd in assay [1] was greater than 700 nM; with ClpS (Escherichia coli), 40 nM.

B1: Mycobacterium tuberculosis ClpS (His6-SUMO tag removed) (natural protein)
chain: MAVVSAPAKPGTTWQRESAPVDVTDRAWVTIVWDDPVNLMSYVTYVFQKLFGYSEPHATKLMLQVHNEGKAVVSAGSRESMEVDVSKLHAAGLWATMQQDR
Turning to B1, in assay [2], the average binding stoichiometry inferred from k (UF,app) against [ClpS]T/[ClpC1]T, stopped-flow unfolding of SsrA-KaedeRed (ClpC1 subunits per ClpS) amounted to 2 and the inflection point of k (UF,app) against the ratio of total ClpS to total ClpC1 monomer concentration, stopped-flow unfolding of SsrA-KaedeRed ([ClpS]T/[ClpC1]T) amounted to 0.65.

B2: His6-SUMO-ClpS (Mycobacterium tuberculosis ClpS adaptor protein, His6-SUMO fusion) (natural protein)
chain: MAVVSAPAKPGTTWQRESAPVDVTDRAWVTIVWDDPVNLMSYVTYVFQKLFGYSEPHATKLMLQVHNEGKAVVSAGSRESMEVDVSKLHAAGLWATMQQDR
notes: also called His6-ClpS; His6-tagged ClpS; not shown: His6, N-terminal, kept; SUMO, N-terminal, kept
Turning to B2, the binding result in assay [3] is reported as “binds”.
